Patent US20250011468A1

Target: human plasma-derived FIXa (Haematologic Technologies Inc) (human) (UniProt P00740)
Assay: cell-based or functional assay

Sequence of human plasma-derived FIXa (Haematologic Technologies Inc) (human) (P00740 47-191, chain 1 of 2): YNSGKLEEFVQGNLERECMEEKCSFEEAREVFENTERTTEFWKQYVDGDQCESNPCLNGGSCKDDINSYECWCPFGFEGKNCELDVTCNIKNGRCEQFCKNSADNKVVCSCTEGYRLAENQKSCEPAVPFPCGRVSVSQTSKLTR
Sequence of human plasma-derived FIXa (Haematologic Technologies Inc) (human) (P00740 227-461, chain 2 of 2): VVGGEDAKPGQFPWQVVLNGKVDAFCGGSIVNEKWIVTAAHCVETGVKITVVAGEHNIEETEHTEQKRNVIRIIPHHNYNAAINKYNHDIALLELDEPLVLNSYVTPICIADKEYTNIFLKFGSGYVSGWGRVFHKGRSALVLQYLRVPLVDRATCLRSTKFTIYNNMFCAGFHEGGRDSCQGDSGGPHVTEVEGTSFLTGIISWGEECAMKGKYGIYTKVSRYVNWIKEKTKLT

ACE910 (bispecific antibody)
Maximum stimulation (fold), at 15300 nM BiAb: 808 fold
